# Measurements taken from the supplement of paper PMC9112550, “Optimization of the antimicrobial peptide Bac7 by deep mutational scanning” (BMC Biology, 2022).
# Tested on: Escherichia coli TOP10
# Test: shrunken log2 fold change of peptide-encoding DNA abundance (4.5 h post-induction vs induction); higher = less antimicrobial activity (less host growth inhibition)
# Conditions: time post-induction: 4.5 h; library: site-saturation at positions 5, 18, 19, 20
# 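Note: peptides expressed intracellularly from a pBAD plasmid library in pooled LB shake-flask culture, induced with 0.3% L-arabinose, DNA abundance read by NGS, three biological replicates, DESeq2 with apeglm shrinkage.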
row,Sequence,shrunken log2 fold change
1,RRIRMRPPRLPRPRPRPILPPRP,0.0577
2,RRIRQRPPRLPRPRPRPSRMPRP,-0.34
3,RRIRPRPPRLPRPRPRPCFTPRP,-0.307
4,RRIRERPPRLPRPRPRPEPWPRP,0.0721
5,RRIRHRPPRLPRPRPRPITMPRP,-0.18
6,RRIRLRPPRLPRPRPRPVHAPRP,0.178
7,RRIRSRPPRLPRPRPRPAADPRP,0.252
8,RRIRQRPPRLPRPRPRPYQQPRP,-0.0082
9,RRIRPRPPRLPRPRPRPQFAPRP,0.218
10,RRIRQRPPRLPRPRPRPKWKPRP,-0.0193
11,RRIRQRPPRLPRPRPRPTMMPRP,-0.194
12,RRIRTRPPRLPRPRPRPHHWPRP,-0.0973
13,RRIRPRPPRLPRPRPRPIYLPRP,-0.379
14,RRIRSRPPRLPRPRPRPWRMPRP,-0.181
15,RRIRERPPRLPRPRPRPRQLPRP,-0.0334
16,RRIRVRPPRLPRPRPRPKNNPRP,-0.406
17,RRIRVRPPRLPRPRPRPLILPRP,-0.409
18,RRIRVRPPRLPRPRPRPHKVPRP,-0.331
19,RRIRMRPPRLPRPRPRPPEMPRP,0.329
20,RRIRQRPPRLPRPRPRPYVNPRP,-0.00544
21,RRIRKRPPRLPRPRPRPRWLPRP,0.796
22,RRIRERPPRLPRPRPRPRIWPRP,0.143
23,RRIRNRPPRLPRPRPRPKMLPRP,-0.043
24,RRIRERPPRLPRPRPRPEYAPRP,-0.143
25,RRIRGRPPRLPRPRPRPSGNPRP,0.18

row,Sequence,shrunken log2 fold change
1,RRIRTRPPRLPRPRPRPMHIPRP,-0.158
2,RRIRDRPPRLPRPRPRPLLKPRP,0.437
3,RRIRWRPPRLPRPRPRPQPPPRP,0.603
4,RRIRARPPRLPRPRPRPVWHPRP,0.324
5,RRIRDRPPRLPRPRPRPGMFPRP,0.00675
6,RRIRNRPPRLPRPRPRPHMDPRP,-0.384
7,RRIRQRPPRLPRPRPRPDSVPRP,-0.0518
8,RRIRDRPPRLPRPRPRPDPGPRP,0.506
9,RRIRGRPPRLPRPRPRPPICPRP,0.155
10,RRIRNRPPRLPRPRPRPRMKPRP,-0.0273
11,RRIRPRPPRLPRPRPRPYELPRP,-0.0423
12,RRIRLRPPRLPRPRPRPRLRPRP,0.285
13,RRIRCRPPRLPRPRPRPTLNPRP,-0.232
14,RRIRNRPPRLPRPRPRPLAQPRP,0.0157
15,RRIRFRPPRLPRPRPRPYEEPRP,-0.221
16,RRIRRRPPRLPRPRPRPFEMPRP,0.0983
17,RRIRSRPPRLPRPRPRPIMNPRP,-0.0954
18,RRIRSRPPRLPRPRPRPYQIPRP,-0.106
19,RRIRMRPPRLPRPRPRPHNPPRP,-0.329
20,RRIRRRPPRLPRPRPRPYEMPRP,-0.0957
21,RRIRVRPPRLPRPRPRPKVLPRP,-0.51
22,RRIRCRPPRLPRPRPRPPYAPRP,0.141
23,RRIRPRPPRLPRPRPRPLDVPRP,-0.146
24,RRIRARPPRLPRPRPRPMSDPRP,0.56
25,RRIRTRPPRLPRPRPRPTEYPRP,-0.245

row,Sequence,shrunken log2 fold change
1,RRIRERPPRLPRPRPRPKRGPRP,0.385
2,RRIRPRPPRLPRPRPRPWSHPRP,-0.157
3,RRIRVRPPRLPRPRPRPMQTPRP,0.00859
4,RRIRMRPPRLPRPRPRPKKKPRP,1.61
5,RRIRKRPPRLPRPRPRPRCLPRP,0.226
6,RRIRFRPPRLPRPRPRPLEWPRP,0.0696
7,RRIRERPPRLPRPRPRPTLYPRP,-0.184
8,RRIRDRPPRLPRPRPRPCYGPRP,-0.0515
9,RRIRARPPRLPRPRPRPRQMPRP,1.2
10,RRIRLRPPRLPRPRPRPRPRPRP,0.823
11,RRIRSRPPRLPRPRPRPHWPPRP,0.341
12,RRIRGRPPRLPRPRPRPPVEPRP,0.608
13,RRIRVRPPRLPRPRPRPWVRPRP,0.0573
14,RRIRDRPPRLPRPRPRPKLMPRP,-0.146
15,RRIRKRPPRLPRPRPRPKHVPRP,0.473
16,RRIRQRPPRLPRPRPRPYMCPRP,-0.184
17,RRIRYRPPRLPRPRPRPMILPRP,-0.287
18,RRIRPRPPRLPRPRPRPWRSPRP,0.0793
19,RRIRTRPPRLPRPRPRPWTLPRP,-0.0728
20,RRIRGRPPRLPRPRPRPRGWPRP,1.68
21,RRIRERPPRLPRPRPRPPGDPRP,0.619
22,RRIRIRPPRLPRPRPRPMMPPRP,-0.238
23,RRIRFRPPRLPRPRPRPVEIPRP,-0.391
24,RRIRFRPPRLPRPRPRPCWKPRP,-0.0141
25,RRIRTRPPRLPRPRPRPSVFPRP,-0.337

row,Sequence,shrunken log2 fold change
1,RRIRERPPRLPRPRPRPTGKPRP,-0.0509
2,RRIRMRPPRLPRPRPRPRGEPRP,0.0602
3,RRIRFRPPRLPRPRPRPKIWPRP,0.106
4,RRIRRRPPRLPRPRPRPCQMPRP,0.0273
5,RRIRDRPPRLPRPRPRPAIFPRP,0.617
6,RRIRIRPPRLPRPRPRPGTMPRP,-0.112
7,RRIRIRPPRLPRPRPRPIQVPRP,-0.071
8,RRIRNRPPRLPRPRPRPLLPPRP,0.0144
9,RRIRSRPPRLPRPRPRPPYQPRP,0.144
10,RRIRMRPPRLPRPRPRPMRLPRP,0.416
11,RRIRKRPPRLPRPRPRPIAGPRP,-0.0506
12,RRIRCRPPRLPRPRPRPMNDPRP,-0.44
13,RRIRDRPPRLPRPRPRPRINPRP,0.0252
14,RRIRSRPPRLPRPRPRPNYHPRP,-0.742
15,RRIRFRPPRLPRPRPRPYAFPRP,-0.193
16,RRIRPRPPRLPRPRPRPLYHPRP,-0.514
17,RRIRGRPPRLPRPRPRPGGTPRP,1.09
18,RRIRFRPPRLPRPRPRPGWDPRP,0.0298
19,RRIRPRPPRLPRPRPRPMRLPRP,0.0536
20,RRIRHRPPRLPRPRPRPTVAPRP,0.325
21,RRIRNRPPRLPRPRPRPDAEPRP,0.45
22,RRIRIRPPRLPRPRPRPGAIPRP,-0.0678
23,RRIRKRPPRLPRPRPRPQGDPRP,0.0739
24,RRIRMRPPRLPRPRPRPWMWPRP,-0.0668
25,RRIRPRPPRLPRPRPRPMSWPRP,0.245

row,Sequence,shrunken log2 fold change
1,RRIRQRPPRLPRPRPRPWNEPRP,-0.139
2,RRIRWRPPRLPRPRPRPAPMPRP,0.615
3,RRIRFRPPRLPRPRPRPPPKPRP,1.58
4,RRIRFRPPRLPRPRPRPHPNPRP,-0.31
5,RRIRFRPPRLPRPRPRPTPHPRP,0.333
6,RRIRARPPRLPRPRPRPRHFPRP,0.157
7,RRIRVRPPRLPRPRPRPKTFPRP,-0.0753
8,RRIRGRPPRLPRPRPRPDMMPRP,0.023
9,RRIRWRPPRLPRPRPRPCPTPRP,0.0714
10,RRIRHRPPRLPRPRPRPCGCPRP,-0.0378
11,RRIRDRPPRLPRPRPRPSIQPRP,-0.0741
12,RRIRRRPPRLPRPRPRPLSEPRP,0.382
13,RRIRKRPPRLPRPRPRPFVEPRP,0.0241
14,RRIRGRPPRLPRPRPRPCNWPRP,0.101
15,RRIRDRPPRLPRPRPRPTEDPRP,-0.0699
16,RRIRIRPPRLPRPRPRPFQHPRP,-0.214
17,RRIRSRPPRLPRPRPRPTKWPRP,-0.0872
18,RRIRPRPPRLPRPRPRPETFPRP,0.176
19,RRIRMRPPRLPRPRPRPIKMPRP,0.14
20,RRIRVRPPRLPRPRPRPTIKPRP,-0.226
21,RRIRPRPPRLPRPRPRPEQVPRP,0.0348
22,RRIRWRPPRLPRPRPRPYNPPRP,-1.48
23,RRIRDRPPRLPRPRPRPGSFPRP,0.0331
24,RRIRRRPPRLPRPRPRPAMVPRP,0.00501
25,RRIRERPPRLPRPRPRPKHIPRP,-0.766

row,Sequence,shrunken log2 fold change
1,RRIRDRPPRLPRPRPRPYWIPRP,-0.296
2,RRIRDRPPRLPRPRPRPMIMPRP,0.387
3,RRIRSRPPRLPRPRPRPTGIPRP,-0.0906
4,RRIRQRPPRLPRPRPRPFRGPRP,0.113
5,RRIRRRPPRLPRPRPRPCELPRP,-0.0595
6,RRIRCRPPRLPRPRPRPQFVPRP,-0.419
7,RRIRSRPPRLPRPRPRPDELPRP,-0.0328
8,RRIRCRPPRLPRPRPRPFWDPRP,0.00555
9,RRIRARPPRLPRPRPRPFHPPRP,-0.178
10,RRIRSRPPRLPRPRPRPKFCPRP,-0.471
11,RRIRRRPPRLPRPRPRPADVPRP,0.146
12,RRIRLRPPRLPRPRPRPHKHPRP,-0.53
13,RRIRGRPPRLPRPRPRPPSIPRP,0.519
14,RRIRCRPPRLPRPRPRPQCQPRP,0.0557
15,RRIRIRPPRLPRPRPRPSATPRP,-0.17
16,RRIRKRPPRLPRPRPRPSRNPRP,-0.0207
17,RRIRSRPPRLPRPRPRPAGDPRP,0.116
18,RRIRDRPPRLPRPRPRPIRFPRP,-0.0156
19,RRIRERPPRLPRPRPRPMKRPRP,-0.312
20,RRIRARPPRLPRPRPRPNDIPRP,-0.448
21,RRIRERPPRLPRPRPRPRECPRP,-0.018
22,RRIRHRPPRLPRPRPRPCVWPRP,0.0245
23,RRIRTRPPRLPRPRPRPPTAPRP,-0.0521
24,RRIRIRPPRLPRPRPRPGAQPRP,-0.0304
25,RRIRYRPPRLPRPRPRPVKWPRP,0.0689
